From publication PMC5623066
pKd: −log10 of the molar value.

Biological target: TDP2 used in vitro (construct not stated) (UniProt O95551)

## SUMO2 used in vitro (from UniProt P61956 10-93) (natural protein)
  pKd: 6.06
